Data published in the domain aggregation screens of Martell et al. (2025).

Assay: soluble fraction after stress (log2 fold change); higher = more stays soluble; pooled small domains, quantitative proteomics
Conditions: stress: 75 degC
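Also: 20 min heating vs room temperature control held 20 min.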

Row | Sequence | soluble fraction (log2)
1 | HMGDVATVKLDNNGLLNMRKSDARGADIVARIPNGTVVQVLNRETEWTQVRYDGKEGYVMSSFLQFAE | -0.047
2 | HMGDVPESLVEKAGHSINAKIISAWGMTETGASTMTRPQDDPERAIYSDGVVLPLMDVRVVNDAGLA | -0.167
3 | HMGDWEKALAQFAAHRLANGSTAFLDEMYPIFERILLQAALNKTGGRKIEAAELLGWGRNTLTRKLKELGF | -2.2
4 | HMGDYERVPEYKGKLTSDLTMEDSQKFAFRFIWQNSDEDEGKIIDQDPPAGKSVAKGSEIVLYVSNG | 0.474
5 | HMGEAAIYRINILINNLNVRSGPGTLYPRLRRADFPGEYDIFEEKNGFGRISNTKSEWVSLNTQYVQRLT | -2.8
6 | HMGEAIPVPDLKHKALTDAEHLVHELGLEIQVVDTGYVKSLPADYILGQSLAPGEKVKSGHIIYVTINSP | -1.23
7 | HMGEGTAVGKALKFLAAQGKKFAPELLDMAGSLTGVEALSKLGDAIKGDPELSELDKRILLAELETDAV | -0.171
8 | HMGEIHALIPGLVSRLFVKPGDRVENGQGLLILEAMKMENEIDSPISGVVGKIYIKAGDKVEKGELIMEIN | -1.45
9 | HMGEIVVPDLIGKSLTEATRILSDSTLTVGKVNYQISSTLLPNTVLDQYPAPGNKLNSGNTVDLFITKE | 0.068
10 | HMGEKTLSEKVYDRLKELIMDGELERGTKITETSIAKMFDVSPTPVREAFRKLASDGLIEVASWKGVIVKG | -0.378
11 | HMGELYGTDQYKDGDAQDTNIGKLLEVNIDGKWQVATTGTSRFEFAGVMDDNGHKLIMISVLPEAKTV | 0.0596
12 | HMGEPLSPDARALTNVLRHYRGWAEPGELARKSGLGSRERVLTAAQSLVNAGLADIERGMVRPTAALMEVQ | 0.0619
13 | HMGEPVASSREVAKRFGKEHKHVLAAIRQILVAENSATKFFHETAFEYRGQRFPEYLMNRDGFALLAMGF | -3.15
14 | HMGEPVNSPMPGTILRVEVTQGAAVKEGQLLVVLEAMKMENEILAPKDGTVAQVVVQKGSHVETGSPLIVL | -0.508
15 | HMGEQLALLERARTLLEDETLETEVQKELEMLLEDIEAARAEANATQLEDLFEELADLLFDLE | 0.316
16 | HMGEQYYVLIDNKQNGPHNINAIQKMIDQNIVNRQTLIWKKGMTDWGNIMDDKDLKEMVNKIP | 0.111
17 | HMGERMELTLDNPREAIPVLDAMGFANYQVVDKEHIHIFERLNESALVNMELAKAGIPVKGISITSE | 0.0918
18 | HMGESEWIVKWRGEKRDEERLQESELVRDDPEHRISVVRPRDDVDASAWLNRWRKSRYVQYIQPNHRVTIS | 0.568
19 | HMGESFPYVAYATDSVRLRARPSSSATILTVIRKGDAVLITGADGSYKIVEYEGRKGYVVSAFLSSQET | -2.51
20 | HMGESVQVPSYVGMGFREAARKARARDFGVAVSDSIYVPGKPPGEIIAQDPKAESRVKEGRTIYFTVAK | -0.109
21 | HMGETAFRYALPLDQGEALKRSHVIRQSISPDDALATRVTVLEDVLDQTLRQPVQAGEVLLEDHFTR | -0.0825
22 | HMGETRWTYDDFGNILTEKAAPYSATEFLGKTYTYDTDNRYLKTVTDALGRTTTTLSYDKYGNPLSVMD | 0.115
23 | HMGETWYEILEISSDATTEEIRQAYFEQARQYHPDTNPGELAREWFYQVQEAYETLSDPDRRRQYDESIKG | -0.0285
24 | HMGEVEVPDLVGIEAIQAKTLLFNSDFLIKEFYDYDPTQPIGVVIRQAPEAGTTQTIGDSVTITINRA | -0.334
25 | HMGEVISRSYPLLKTKAKPAEVSEALQKLIKAPATVTFDEKNEVFHINATRLQHTWAEGYFKGLHGK | -0.14
26 | HMGEVPPGWSVEALAAIERDLAHHVGPVARVLVQRGARLHTTTDDLRSALANAITDDLARRRFMQP | -0.575

Row | Sequence | soluble fraction (log2)
27 | HMGFEALRSRHRITAREMEVLQHMLAGRSNAEIGHTLGLSERTVKTHITSIFNKLGVDSRAQLGYMLK | -1.87
28 | HMGFLTKTQRLEILLHLKDEPYYNVEKLKELIKNRYGIVYQSSQSYYDLLKEAGLSWHQTQA | -2.33
29 | HMGFVTVTEVDTTADLKLARVYVSVLGPEEQWAKSFTALESARGFVWNWLRKHLDLRVTPQLAF | -1.08
30 | HMGGASVTDQQIRDFVSAHTDDPMAIYKAAVANGISSARLAQVTGISIADIEAFVRKNNLPSF | -0.0535
31 | HMGGEEINMINLVGLSQSEAENQLAKLKLKIGQVTAEYSDKPSGTVLKQSISANNKVKKGADIDIVVSKG | -0.0126
32 | HMGGELLSLRRIGTLTGISYPTLLRYVARYGEQIPQTGTGRSRRFPPAAVPVFQELRATRGRAPRATA | -0.104
33 | HMGGEPKALLFAGVETREMAEITQRLEAADIPYEIREDGGSIYVARSEVFNARMMLSADGLPS | -0.455
34 | HMGGFNATTLQNIEELRRSLSDADQFGRHEVIETIGGSDSRAGKLLKKMLEAGIIEQVKGHGKGRYRFKRT | 0.0983
35 | HMGGGEYTVAKGDTLWKIAAQTLGSPTRYAEIYNLNKDVIEETARGRGKRDSSNGHWLFPGTALKIPGT | 0.421
36 | HMGGGFLVPSLVGKSLEEARSLSELRGFKLEVGDYVISSEYPAGRVTRQNPANGAKGQEGDVIKVEVSS | -0.00395
37 | HMGGGRELGLDPETGKKISVRLGKFGPFVQLGESGEEDKPVFANLGKNQSIATLSLEEAIALLARPK | 0.187
38 | HMGGGVSSSLAGNVFKVLLPAGSVVEQGQAVIVLEAMKMETEVNAPKSGSVSSVFVNEGDTVEVGDLLFAI | -0.0461
39 | HMGGKWKAIIIYHLKNGPKRFGELRRALISSTETVLSNQLKQLEQDGLVSRQVFGTKPPLKTVYSLTDFG | -3.3
40 | HMGGKWKLRILLALENSAQDALRYGEIKNIVSGITDMMLSQSLRELTADGLIERRQYQEIPPKVEYRLS | -2.31
41 | HMGGKWKPIILYYININSVARYSELKRFIPSINERMLTRQLRELEEDNLIERKVYPIVPPKVEYRLTEYGK | -0.179
42 | HMGGKWSMPIIYILSKGKMRFKELERSVEGINTRMLVKELKNMEANGIVTREVFPTVPPTVEYALT | -0.968
43 | HMGGKYKGVIIGHLIDKTLRYNELQKLISHATPKMLIQQLKELEADGIIQRKLYPVVPPKTEYSLTERG | -0.973
44 | HMGGLAEGTKITLQNTVNVRASMGEDAEKIGTAYAGEKVTVIMSYAEGWTKVTWNDKTGYIKTSLL | -1.5
45 | HMGGLAHPASGEEMEHLFAHLEGELLKSGFLFPPDKAAGMMRNIRAMLTRADFTDQEVRTLRGMIVALSRG | -1.62
46 | HMGGNDALEIAKSNPQVIEVLGEPVTKDGMGSYSVNYKNGHKTSEATIPIEGPNGTATLHVKTSGSDDAL | 0.237
47 | HMGGNKILTWKTDAATTRNQVPINERKEGLEISYKNEERNWVAEKYVGTSFSDDKWGVDYNWNQD | 0.951
48 | HMGGPAGPDFTYTGDDLTRIDYDDGSYKVFTYDAGKLSQIDFTSGGTTTRKTFVYSGDTLIRVDQTI | -0.179
49 | HMGGPEPIPAQIREGDTVYVTKFKQLGLVLKISEDTAEVQIGPLRATVAKTELSKVDATATEHR | -0.0822
50 | HMGGQFVKVEVIAQIFGVTVRRVQQLTQEGVVKTTEIPGEGRRYELVPTIKTYIQYLSDKAY | -4.02
51 | HMGGTFLVRILDPALNIRAQPSLTARINGVIRDKSVYTIVATSFEPKTQITWGKLKSGAGWISIGSKYVKK | -3.4
52 | HMGGVTVQNRETHVNSTVNVRSEQTTESERVALAYQGDAITQIESYENGWSKVEYKGLSGYVMTEYL | 0.275

Row | Sequence | soluble fraction (log2)
53 | HMGGYLIGDVAQMVGLSRDALRFYEKKGIIRADKKENGYRYYSEDDIYRLMYILYHRKMNTSLEEIGGLMS | -0.722
54 | HMGHKKLTIELQDEIIVLPKELEKYNLTVSDDKTSLIYTYKSRGEKTGITDLLRDIKDAGLRLKDLITEQ | 0.284
55 | HMGHTVHAVPEAADRQRLDVFVGNLHPTISRAYIQKLSKEDQILVNGKPEKAGFKLRTGHSVSVPDMSE | 0.00554
56 | HMGIAEAKRVIVRTLHDVLGPEADFLTEKIDVAQTAAELRVHAEKYRDMLVDMGKPKKSAAFWEAFEAALP | -0.588
57 | HMGIAKLLTEQEYKIALLAAERRTNAMIAEEMNLTENTVKTHLKHIFDKVGIAGNAKNKRHLLADMMNSER | -0.552
58 | HMGIDISAFSETALQVLRLQAAGYTAKEISEKLHITPRTVKYHASQNYRKLDAKNLVDAVQIAQALHI | -1.79
59 | HMGIEQVELASRVRDAVDSLPHHLREIILLSYFQKMSYNQIAETLQVPLGTVKSRLHAAVASFAQAWTQSS | -0.712
60 | HMGIFAQTTKWRDIYTVKKKDTIFGIANKYGLSLPELMEANPEMKQEGYMLQKGTTLFIPFASD | -1.32
61 | HMGIGSTLTDGVRVYASDDEIVVNAPAESDVRIFNAGGAQLYAGRVADVRVAVAKGLYVVTVDGRSTKITV | -1.11
62 | HMGIILDWELFEQFADKLKRKKVDFVIEPYLRFEGRRGEQSTLFIKDPSGNYLEFKAFKNIDMLFEK | -1.78
63 | HMGIPIEAYHESLHRHYIDLWELLDTGKETLIDAEGNEVDKIHLLNAIRFNVNGMLHELLKE | -1.91
64 | HMGIQYVASGHYARMETDAQGVSRLFPPESGAPDESDRLAALSPEVLTRLILPLGDFAPEDVEEMAVD | -0.0745
65 | HMGIRAFDPEAFDERLKEFFSMIAPYKKLDTRSLQPHFPHHAKEVAERIRQLAEAGKIKVDGFYISEL | -0.587
66 | HMGIRDIHITVNGESLKLSKKQNYIFVDIFDFYPFDLSILGGSKLITTINGEQAEFTSPLKDGDVVELYWK | -2.25
67 | HMGISNEETFLLEKMSSGRRYSRKELDNLMGFEKTKTIRLLGSLINKGLVVAEGVNRARRYIR | -1.27
68 | HMGISQAQAMQALRKLIEEEDKHTPLSDQTLMERLKAAGIPLARRTIAKYRESLGIPSAAQRK | -0.266
69 | HMGISVEVPDLKNMSVAEAGSLLKNSGLSYAVVDSDYVKTISPGKILDQNPGRGLRVKKGRIVYLTINSL | -1.69
70 | HMGITDHIYQDLKKRLENGNYPAGTRFPSESTLADEFSVNKMTMNKIVSMLAEQGYLIRGNRGAGTRVAEN | -0.399
71 | HMGITPSIEMILEYFAFKESSETEANKFFNYYSSIGWLVGGKTKMKDWKASARNWIMNQNKFQ | -4.63
72 | HMGIVAPGTLKHLHAVGNSYYPDWETKRHELVTAVTKGRTSSSKELYEAEANRLITRIEELLMTAAQSV | -0.113
73 | HMGIVTMPGQGSKMRFDFDATGDLPSSTSWRGMFAYANNTKRAYVSTGTTMGGYNGWRQLIAMDEYGNYQT | 0.0821
74 | HMGKEIEAPDFKNMTLKEAKIAAKEYKIRIKKGDEVVSEEVEKGRIVSQDPDAGTTIKTGSTVTVNISKGL | 0.131
75 | HMGKELSTVVVPDLTGLSVLEARNVLTKVGLQLTPSGAGIAFKQIPTPGTRLTLGATVTVYFVATGY | -1.47
76 | HMGKELTVPDVVGQNYVSAQEKLIAGGFQVEVADSVYDSRYGRGVVVDQNPHKDTRVKPGRLIYVTVNA | -0.157
